B1: Clone 6: scFv phage clone, VL-linker-VH, SEQ ID NO: 64 (protein)
scFv: QSVLTQPPSASGTPGQRVTISCSGSSSNIGSNYVSWYQQLPGTAPKLLIYDNNKRPSGIPDRFSGSKSGTSATLGITGLQTGDEADYYCGTWDSSLSALYVFGAGTKLTVLGEGKSSGSGSESKASQVQLQESGPGLVKPSETLSLTCSVSGGSTSSYYWSWIRQPPGKGLEWIGYISNSGSTNYNPSLKSRVTMSIDTSNNQFSLKLSSVTAADTAVYYCASHLGATWRWGQGTLVTVSS
modifications: Clone 6
B2: Clone 13: phage clone, VH only, SEQ ID NO: 66 (antibody, V domains shown)
VH: EVQLLESGGGLVQPGGSLRLSCAASGFTFSSDLMSWVRQAPGKGLEWVSAISGSGGSTYYADSVKGRFTISRDNSKNTLYLQMNSLRAEDTAVYYCAKNEVIFDYWGQGTLVTVSSASTKGLSMFDYWGQGTKVEIK
modifications: Clone 13
B3: Clone 8: clone from naïve human scFv phage display library enriched on BZ348014 (Table 5); not the VHH clone 8 (protein)
scFv: DVQLVESGGGLVQPGGSLRLSCTASGFTFSNYAMNWVRQAPGKGLEWVSVISSSGSRRNYADSVKGRFTISRDNAKSTLYLQMNSLKPEDTAVYYCAKVRDAGYYRWNLNDLDYRGQGTQVTVSS
modifications: Clone 8
B4: Clone 14: scFv phage clone, VK-Linker-VH, SEQ ID NO: 67 (protein)
scFv: DVVMTQSPLSLPATLGQPASISCRSSQSLVYTDGNTYLNWFQQRPGQSPRRLIYKVSNRDSGVPDRFSGSGSGTHFTLKISRVEAEDVGVYYCMQGTHWPPTFGQGTKVEIKEGKSSGSGSESKASEVQLVQSGAEVKKPGASVKVSCKASGGTFSSYAISWVRQAPGQGLEWMGGIIPIFGTANYAQKFQGRVTITADESTSTAYMELSSLRSEDTAVYYCASSGVDYWGQGTLVTVSS
modifications: Clone 14
B5: Clone 5: scFv phage clone, VL-Linker-VH, SEQ ID NO: 63 (protein)
scFv: SSELTQDPAVSVALGQTVRITCQGDSLRSYYASWYQQKPGQAPVLVIYGKNNRPSGIPDRFSGSTSGNFASLTITGAQAEDGADYYCHSRDSSGNHLVFGGGTKLTVLGEGKSSGSGSESKASEVQLVQSGAEVKKPGESLKISCKGSGYSFTSYWIGWVRQMPGKGLEWMGIIYPGDSDTRYSPSFQGQVTISADKSISTAYLQWSSLKASDTAMYYCARRARGAFDIWGQGTLVTVSS
modifications: Clone 5
B6: Clone 11: scFv phage clone, VH-linker-VK, SEQ ID NO: 65 (protein)
scFv: EVQLVESGGGVVQPGRSLRLSCAATGFTFSNYGIHWVRQAPGKGLEWVAVTSYDGSNKYYADSVKGRFTISRDNSKNTLYLQMNSLRVEDTAVYYCAKDRGYYTYVFDYWGRGTLVTVSSGEGKSSGSGSESKASDVVMTQTPLSLPVTPGEPAAISCRSSQSLLHSNGYNYLDWYLQKPGQSPQLLIYLGSNRASGVPDRFSGSGSGTDFTLKISRVEAEDVGVYYCMQAVQTVD
modifications: Clone 11

System: not listed separately
Experiment: Phage ELISA on blocked well
Type: binding
Conditions: Table 5, scFv phage diluted 1:5
Method: (§1) After 2 rounds of enrichment against the primary target, positive binders were identified by phage ELISA and analyzed by restriction mapping & sequencing for identification of unique clones. Small scale phage growths were diluted 1:5 in TBS+casein. Nunc Maxi-Sorp strip wells were coated at ˜5 μg/ml of each test protein overnight at 4° C. and blocked with TBS+casein. The diluted phage were applied and allowed to bind for 1 hour with shaking. The wells were washed 4 times with TBS+0.05% Tween20 and twice with TBS. Bound phage were detected by incubation for 1 hour with anti-M13-HRP and after washing as above, developed with TMB. Absorbance at 450 nm was read after acidification of the wells.

Row | Molecule | ELISA absorbance at 450 nM, Blocked well
1 | B1 | 0.041
2 | B2 | 0.043
3 | B3 | 0.047
4 | B4 | 0.044
5 | B5 | 0.045
6 | B6 | 0.043

System: CD11b A-domain polypeptides
Experiment: Conformation selectivity in counterscreen and dilution series ELISA
Type: binding, human
Conditions: conclusion from ELISA data
Method: as §1
High binding clones were included in a counterscreen ELISA against other CD11b A-domain polypetides which produced the following data:
To confirm binding, a dilution series experiment was carried out. Select clones were subjected to a dilution series which generated the following data: […]

Row | Molecule | Selectivity of binding to CD11b A-domain polypeptides mutationally stabilized in active conformation over the other conformations
7 | B1 | bound selectively
8 | B2 | bound selectively
9 | B4 | bound selectively
10 | B5 | limited or no selectivity

Target: T1, BZ348014 (CD11b A-domain CD11bA-D242A/F275S/F302G) (Homo sapiens, UniProt P11215, D258A/F291S/F318G)
T1 construct: MGS-8XHis-SG (N); TEV site (ENLYFQ) followed by GS linker (N); made in house; host or cells: E. coli BL21DE3 (pET-11d)
T1 sequence (P11215 148-337 D258A/F291S/F318G): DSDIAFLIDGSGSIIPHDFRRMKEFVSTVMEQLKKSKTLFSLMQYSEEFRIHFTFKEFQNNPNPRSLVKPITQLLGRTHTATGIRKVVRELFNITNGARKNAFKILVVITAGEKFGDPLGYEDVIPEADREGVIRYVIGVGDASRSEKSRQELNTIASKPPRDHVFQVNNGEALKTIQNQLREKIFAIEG
Experiment: Phage ELISA on BZ348014
Type: binding
Conditions: Table 5; scFv phage diluted 1:5; after 2 rounds of enrichment
Source text: A naïve human scFv phage display library and VHH phage display library were screened against several integrin targets of interest. The screen involved phage ELISA followed by sequencing.
Example experiment: A diverse naïve human scFv phage display library (Neoclone, LLC, Madison, WI) was enriched on BZ348014.
as §1

Row | Molecule | ELISA absorbance at 450 nM, BZ348014
11 | B3 | 0.060
12 | B6 | 0.628

Target: T2, BZ348014 antigen (Homo sapiens, UniProt P11215, D258A/F291S/F318G)
T2 construct: MGS-8XHis-SG (N); TEV site (ENLYFQ) followed by GS linker (N); made in house; host or cells: E. coli BL21DE3 (pET-11d)
T2 sequence (P11215 148-337 D258A/F291S/F318G): as above
Experiment: VHH phage display library screening
Type: binding
Conditions: not given
Method: A panning and enrichment of the BZ348014 antigen against a VHH phage display library (Neoclone, LLC, Madison, WI) was also conducted in an identical manner to the human scFv phage display library screen. One unique binder was identified, clone 8.

Row | Molecule | Binder identified by panning and enrichment against BZ348014 antigen
13 | B3 | unique binder
